Test results taken from paper PMC3587828 (The Journal of Cell Biology, 2013).

Experiments:
[1] = target: T1, MBP–Morg1 (human, UniProt Q9BRX9 1-315); test: pull-down
T1 sequence (looked up): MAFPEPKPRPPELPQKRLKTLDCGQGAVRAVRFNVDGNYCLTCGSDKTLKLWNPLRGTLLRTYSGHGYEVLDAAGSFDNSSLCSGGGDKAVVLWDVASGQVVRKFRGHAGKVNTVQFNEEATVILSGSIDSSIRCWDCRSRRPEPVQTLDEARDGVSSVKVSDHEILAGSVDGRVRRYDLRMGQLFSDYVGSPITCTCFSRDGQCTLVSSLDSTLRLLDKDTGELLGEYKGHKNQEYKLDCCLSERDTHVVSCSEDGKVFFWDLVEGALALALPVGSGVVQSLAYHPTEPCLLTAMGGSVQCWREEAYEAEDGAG

[2] = target: recombinant Cdc42 (Q61L), GST-free (human, UniProt P60953 1-188, Q61L | C188S); test: pull-down
recombinant Cdc42 (Q61L), GST-free, sequence (P60953 1-188 Q61L/C188S): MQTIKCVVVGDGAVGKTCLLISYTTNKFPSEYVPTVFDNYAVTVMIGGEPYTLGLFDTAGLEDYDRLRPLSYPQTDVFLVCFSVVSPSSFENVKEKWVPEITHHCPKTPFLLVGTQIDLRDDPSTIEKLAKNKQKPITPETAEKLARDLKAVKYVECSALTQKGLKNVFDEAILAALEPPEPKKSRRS

B1: GST–Par6β (126–254) (domain or fragment, human, UniProt Q9BYG5 126-254, looked up)
chain: RKKPHIVISMPQDFRPVSSIIDVDILPETHRRVRLYKYGTEKPLGFYIRDGSSVRVTPHGLEKVPGIFISRLVPGGLAQSTGLLAVNDEVLEVNGIEVSGKSLDQVTDMMIANSRNLIITVRPANQRNN
binding result [1]: binds | binding result [2]: binds
